In article PMC9482650, “Quantitative fragmentomics allow affinity mapping of interactomes” (Nature Communications, 2022):

Assays:
Assay in all cases: holdup assay
Parameters in all cases: key: below the threshold = too weak to quantify, mostly under pKd 3.1 to 4
Settings in all cases: plain residues with an end cap or a label only (N-terminal biotin on a linker: ado-ado)
APBA1_1, Q02410 = target: T1, APBA1_1, Q02410
T1 sequence (Q02410 651-752, limits assumed, looked up): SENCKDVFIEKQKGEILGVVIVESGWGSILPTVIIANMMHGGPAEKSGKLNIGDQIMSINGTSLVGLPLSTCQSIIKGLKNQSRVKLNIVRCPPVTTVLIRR

ARHGEF12, Q9NZN5-2 = target: ARHGEF12, Q9NZN5-2
Chain of ARHGEF12, Q9NZN5-2 (Q9NZN5 other isoform, or with tags, fused parts or gaps): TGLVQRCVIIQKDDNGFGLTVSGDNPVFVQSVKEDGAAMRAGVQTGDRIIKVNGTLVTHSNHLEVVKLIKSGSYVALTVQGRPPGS

DLG2_2, Q15700 = target: DLG2_2, Q15700
Chain of DLG2_2, Q15700 (Q15700 189-283): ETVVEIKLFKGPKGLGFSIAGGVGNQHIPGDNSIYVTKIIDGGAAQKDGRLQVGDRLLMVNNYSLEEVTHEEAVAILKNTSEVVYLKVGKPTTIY

DLG3_2, Q92796 = target: T2, DLG3_2, Q92796
T2 sequence (Q92796 221-321, limits assumed, looked up): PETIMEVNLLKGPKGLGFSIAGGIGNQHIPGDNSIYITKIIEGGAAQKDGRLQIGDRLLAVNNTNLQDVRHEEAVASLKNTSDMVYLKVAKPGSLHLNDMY

DLG3_3, Q92796 = target: T3, DLG3_3, Q92796
T3 sequence (Q92796 374-475, limits assumed, looked up): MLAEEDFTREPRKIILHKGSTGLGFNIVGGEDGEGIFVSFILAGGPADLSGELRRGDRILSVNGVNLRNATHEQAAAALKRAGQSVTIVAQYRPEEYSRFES

DLG4_3, P78352 = target: DLG4_3, P78352
Chain of DLG4_3, P78352 (P78352 306-403): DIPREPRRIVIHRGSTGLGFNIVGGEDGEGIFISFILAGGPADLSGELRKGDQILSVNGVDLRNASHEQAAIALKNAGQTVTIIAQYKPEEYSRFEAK

DLG5_1, Q8TDM6 = target: DLG5_1, Q8TDM6
Chain of DLG5_1, Q8TDM6 (Q8TDM6 617-713): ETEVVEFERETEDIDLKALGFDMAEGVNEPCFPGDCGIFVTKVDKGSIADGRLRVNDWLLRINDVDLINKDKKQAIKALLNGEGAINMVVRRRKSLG

FRMPD4, Q14CM0 = target: FRMPD4, Q14CM0
Chain of FRMPD4, Q14CM0 (Q14CM0 67-160): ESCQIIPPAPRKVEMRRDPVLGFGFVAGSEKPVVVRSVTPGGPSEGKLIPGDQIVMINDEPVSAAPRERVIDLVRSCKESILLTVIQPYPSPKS

GORASP2, Q9H8Y8 = target: GORASP2, Q9H8Y8
GRASP, Q7Z6J2 = target: GRASP, Q7Z6J2
Chain of GRASP, Q7Z6J2 (Q7Z6J2 96-193): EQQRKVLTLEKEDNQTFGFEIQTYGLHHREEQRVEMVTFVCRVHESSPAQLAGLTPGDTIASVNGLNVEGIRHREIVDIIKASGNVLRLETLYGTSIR

GRIP1_5, Q9Y3R0 = target: T4, GRIP1_5, Q9Y3R0
T4 sequence (Q9Y3R0 568-668, limits assumed, looked up): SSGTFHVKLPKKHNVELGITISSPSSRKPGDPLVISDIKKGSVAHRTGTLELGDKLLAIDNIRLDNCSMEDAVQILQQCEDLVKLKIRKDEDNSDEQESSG

IL16_1, Q14005 = target: IL16_1, Q14005
Chain of IL16_1, Q14005 (Q14005 210-306): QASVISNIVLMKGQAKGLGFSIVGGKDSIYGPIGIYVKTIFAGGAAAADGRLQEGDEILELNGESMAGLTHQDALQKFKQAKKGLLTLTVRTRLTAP

LDB3, O75112 = target: LDB3, O75112
Chain of LDB3, O75112 (O75112 1-94): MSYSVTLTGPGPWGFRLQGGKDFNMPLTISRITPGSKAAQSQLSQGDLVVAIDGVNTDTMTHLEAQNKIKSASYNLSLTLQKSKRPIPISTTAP

LIN7A, O14910 = target: T5, LIN7A, O14910
T5 sequence (O14910 103-200, limits assumed, looked up): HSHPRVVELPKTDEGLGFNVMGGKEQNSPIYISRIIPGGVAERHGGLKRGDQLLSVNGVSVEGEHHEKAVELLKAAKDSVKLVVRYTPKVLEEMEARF

MAGI1_2, Q96QZ7 = target: MAGI1_2, Q96QZ7
Chain of MAGI1_2, Q96QZ7 (Q96QZ7 456-580): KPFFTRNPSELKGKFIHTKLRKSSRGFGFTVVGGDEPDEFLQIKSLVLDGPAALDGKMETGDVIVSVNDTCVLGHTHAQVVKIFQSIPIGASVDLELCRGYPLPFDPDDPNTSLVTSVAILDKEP

MAGI2_2, Q86UL8 = target: MAGI2_2, Q86UL8
Chain of MAGI2_2, Q86UL8 (Q86UL8 410-522): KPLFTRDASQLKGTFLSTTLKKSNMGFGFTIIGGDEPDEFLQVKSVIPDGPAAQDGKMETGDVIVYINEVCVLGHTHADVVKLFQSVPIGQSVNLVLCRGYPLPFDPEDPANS

MAGI2_3, Q86UL8 = target: MAGI2_3, Q86UL8
Chain of MAGI2_3, Q86UL8 (Q86UL8 600-682): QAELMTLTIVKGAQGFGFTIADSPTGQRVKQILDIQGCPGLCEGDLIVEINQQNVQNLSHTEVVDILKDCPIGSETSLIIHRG

MAGI3_2, Q5TCQ9 = target: MAGI3_2, Q5TCQ9
Chain of MAGI3_2, Q5TCQ9 (Q5TCQ9 398-503): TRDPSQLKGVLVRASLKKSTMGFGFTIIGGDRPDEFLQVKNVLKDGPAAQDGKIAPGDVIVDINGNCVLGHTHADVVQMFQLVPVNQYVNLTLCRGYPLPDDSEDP

MPDZ_5, O75970 = target: T6, MPDZ_5, O75970
T6 sequence (O75970 695-796, limits assumed, looked up): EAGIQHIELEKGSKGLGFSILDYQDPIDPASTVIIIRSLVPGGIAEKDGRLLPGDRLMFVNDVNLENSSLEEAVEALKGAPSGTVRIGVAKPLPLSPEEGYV

MPP6, Q9NZW5 = target: T7, MPP6, Q9NZW5
T7 sequence (Q9NZW5 125-219, limits assumed, looked up): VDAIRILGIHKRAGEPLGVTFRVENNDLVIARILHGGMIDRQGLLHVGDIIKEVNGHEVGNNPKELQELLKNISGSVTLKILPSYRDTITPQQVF

PDLIM1, O00151 = target: PDLIM1, O00151
Chain of PDLIM1, O00151 (O00151 1-87): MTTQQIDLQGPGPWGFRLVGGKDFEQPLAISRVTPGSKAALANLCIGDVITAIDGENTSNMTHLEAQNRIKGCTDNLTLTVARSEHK

RADIL, Q96JH8 = target: T8, RADIL, Q96JH8
T8 sequence (Q96JH8 971-1071, limits assumed, looked up): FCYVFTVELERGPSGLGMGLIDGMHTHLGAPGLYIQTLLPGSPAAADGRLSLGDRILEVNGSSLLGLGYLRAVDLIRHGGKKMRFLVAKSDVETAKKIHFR

SCRIB_2, Q14160 = target: SCRIB_2, Q14160
Chain of SCRIB_2, Q14160 (Q14160 857-960): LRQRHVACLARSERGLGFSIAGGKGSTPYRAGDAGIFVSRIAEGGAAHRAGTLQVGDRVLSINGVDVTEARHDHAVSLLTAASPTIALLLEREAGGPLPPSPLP

SCRIB_3, Q14160 = target: SCRIB_3, Q14160
Chain of SCRIB_3, Q14160 (Q14160 999-1103): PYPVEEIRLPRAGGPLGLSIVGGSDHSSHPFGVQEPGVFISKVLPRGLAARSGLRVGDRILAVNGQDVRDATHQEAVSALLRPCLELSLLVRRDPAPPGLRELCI

SHANK1, Q9Y566 = target: T9, SHANK1, Q9Y566
T9 sequence (Q9Y566 658-767, limits assumed, looked up): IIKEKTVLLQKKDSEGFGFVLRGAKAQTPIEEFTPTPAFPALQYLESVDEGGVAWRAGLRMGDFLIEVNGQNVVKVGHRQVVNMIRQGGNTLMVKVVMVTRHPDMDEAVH

SIPA1L2, Q9P2F8 = target: T10, SIPA1L2, Q9P2F8
T10 sequence (Q9P2F8 945-1036, limits assumed, looked up): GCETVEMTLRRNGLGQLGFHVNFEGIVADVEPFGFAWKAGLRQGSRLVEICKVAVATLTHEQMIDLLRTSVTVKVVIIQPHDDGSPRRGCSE

TJP1_2, Q07157 = target: TJP1_2, Q07157
Chain of TJP1_2, Q07157 (Q07157 181-274): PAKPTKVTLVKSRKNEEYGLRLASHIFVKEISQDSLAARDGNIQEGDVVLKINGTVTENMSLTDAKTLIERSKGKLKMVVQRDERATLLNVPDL

TJP2_1, Q9UDY2 = target: TJP2_1, Q9UDY2
Chain of TJP2_1, Q9UDY2 (Q9UDY2 24-128): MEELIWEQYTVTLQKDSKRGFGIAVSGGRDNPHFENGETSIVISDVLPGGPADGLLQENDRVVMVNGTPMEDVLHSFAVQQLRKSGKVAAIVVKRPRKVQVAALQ

In the case of TNSKQGETTV [FZD1, Q9UP38], the pKd (APBA1_1, Q02410) is reported as “below the threshold”, the pKd (ARHGEF12, Q9NZN5-2) is reported as “below the threshold” and the pKd (DLG2_2, Q15700) is reported as 4.82. The pKd (DLG3_2, Q92796) was 4.64, the pKd (DLG3_3, Q92796) was 4.13 and the pKd (DLG4_3, P78352) was 3.76. The pKd (DLG5_1, Q8TDM6) was 3.91, the pKd (FRMPD4, Q14CM0) was “below the threshold” and the pKd (GORASP2, Q9H8Y8) was 3.99. The pKd (GRASP, Q7Z6J2) was “below the threshold”, the pKd (GRIP1_5, Q9Y3R0) was “below the threshold” and the pKd (IL16_1, Q14005) was “below the threshold”. The pKd (LDB3, O75112) was “below the threshold”, the pKd (LIN7A, O14910) was 3.72 and the pKd (MAGI1_2, Q96QZ7) was 3.82. It also gave a pKd (MAGI2_2, Q86UL8) of 4.38, a pKd (MAGI2_3, Q86UL8) of 3.83 and a pKd (MAGI3_2, Q5TCQ9) of 4.94. For the same binder, the pKd (MPDZ_5, O75970) was “below the threshold”, the pKd (MPP6, Q9NZW5) was “below the threshold” and the pKd (PDLIM1, O00151) was “below the threshold”. It also gave a pKd (RADIL, Q96JH8) of 3.63, a pKd (SCRIB_2, Q14160) of 4.01 and a pKd (SCRIB_3, Q14160) of 4.38. The pKd (SHANK1, Q9Y566) was 3.57, the pKd (SIPA1L2, Q9P2F8) was “below the threshold” and the pKd (TJP1_2, Q07157) was 3.48. For the same binder, the pKd (TJP2_1, Q9UDY2) was “below the threshold”.

For TFSRRPKTRV [CD226, Q15762], the pKd (APBA1_1, Q02410) was “below the threshold”, the pKd (ARHGEF12, Q9NZN5-2) was 3.93 and the pKd (DLG2_2, Q15700) was “below the threshold”. The pKd (DLG3_2, Q92796) was “below the threshold”, the pKd (DLG3_3, Q92796) was 3.81 and the pKd (DLG4_3, P78352) was 3.84. The pKd (DLG5_1, Q8TDM6) was “below the threshold”, the pKd (FRMPD4, Q14CM0) was “below the threshold” and the pKd (GORASP2, Q9H8Y8) was 3.87. For the same binder, the pKd (GRASP, Q7Z6J2) was 3.98, the pKd (GRIP1_5, Q9Y3R0) was “below the threshold” and the pKd (IL16_1, Q14005) was 3.57. The pKd (LDB3, O75112) was “below the threshold”, the pKd (LIN7A, O14910) was “below the threshold” and the pKd (MAGI1_2, Q96QZ7) was 4.75. For the same binder, the pKd (MAGI2_2, Q86UL8) was 5.31, the pKd (MAGI2_3, Q86UL8) was “below the threshold” and the pKd (MAGI3_2, Q5TCQ9) was 5.24. For the same binder, the pKd (MPDZ_5, O75970) was “below the threshold”, the pKd (MPP6, Q9NZW5) was “below the threshold” and the pKd (PDLIM1, O00151) was “below the threshold”. For the same binder, the pKd (RADIL, Q96JH8) was 3.57, the pKd (SCRIB_2, Q14160) was 3.54 and the pKd (SCRIB_3, Q14160) was “below the threshold”. For the same binder, the pKd (SHANK1, Q9Y566) was 4.06, the pKd (SIPA1L2, Q9P2F8) was “below the threshold” and the pKd (TJP1_2, Q07157) was 3.5. The pKd (TJP2_1, Q9UDY2) was 4.25.

With AKADAQESRL [PLCB2, Q00722] the pKd (APBA1_1, Q02410) was “below the threshold”, the pKd (ARHGEF12, Q9NZN5-2) was 3.93 and the pKd (DLG2_2, Q15700) was “below the threshold”. The pKd (DLG3_2, Q92796) was “below the threshold”, the pKd (DLG3_3, Q92796) was “below the threshold” and the pKd (DLG4_3, P78352) was “below the threshold”. The pKd (DLG5_1, Q8TDM6) was “below the threshold”, the pKd (FRMPD4, Q14CM0) was 4.05 and the pKd (GORASP2, Q9H8Y8) was “below the threshold”. For the same binder, the pKd (GRASP, Q7Z6J2) was “below the threshold”, the pKd (GRIP1_5, Q9Y3R0) was “below the threshold” and the pKd (IL16_1, Q14005) was 3.94. The pKd (LDB3, O75112) was “below the threshold”, the pKd (LIN7A, O14910) was 3.65 and the pKd (MAGI1_2, Q96QZ7) was “below the threshold”. The pKd (MAGI2_2, Q86UL8) was “below the threshold”, the pKd (MAGI2_3, Q86UL8) was 3.51 and the pKd (MAGI3_2, Q5TCQ9) was “below the threshold”. For the same binder, the pKd (MPDZ_5, O75970) was “below the threshold”, the pKd (MPP6, Q9NZW5) was “below the threshold” and the pKd (PDLIM1, O00151) was “below the threshold”. The pKd (RADIL, Q96JH8) was “below the threshold”, the pKd (SCRIB_2, Q14160) was “below the threshold” and the pKd (SCRIB_3, Q14160) was 4.44. For the same binder, the pKd (SHANK1, Q9Y566) was 4.33, the pKd (SIPA1L2, Q9P2F8) was “below the threshold” and the pKd (TJP1_2, Q07157) was “below the threshold”. For the same binder, the pKd (TJP2_1, Q9UDY2) was “below the threshold”.

For THHRKIHTRV [ZNF599, Q96NL3], the pKd (APBA1_1, Q02410) was “below the threshold”, the pKd (ARHGEF12, Q9NZN5-2) was 4.3 and the pKd (DLG2_2, Q15700) was 5.38. The pKd (DLG3_2, Q92796) was 5.26, the pKd (DLG3_3, Q92796) was 4.43 and the pKd (DLG4_3, P78352) was 4.38. The pKd (DLG5_1, Q8TDM6) was 3.72, the pKd (FRMPD4, Q14CM0) was “below the threshold” and the pKd (GORASP2, Q9H8Y8) was 4.25. For the same binder, the pKd (GRASP, Q7Z6J2) was 3.76, the pKd (GRIP1_5, Q9Y3R0) was “below the threshold” and the pKd (IL16_1, Q14005) was 3.48. For the same binder, the pKd (LDB3, O75112) was “below the threshold”, the pKd (LIN7A, O14910) was “below the threshold” and the pKd (MAGI1_2, Q96QZ7) was 4.96. It also gave a pKd (MAGI2_2, Q86UL8) of 5.78, a pKd (MAGI2_3, Q86UL8) of 3.82 and a pKd (MAGI3_2, Q5TCQ9) of 5.32. For the same binder, the pKd (MPDZ_5, O75970) was 3.55, the pKd (MPP6, Q9NZW5) was “below the threshold” and the pKd (PDLIM1, O00151) was “below the threshold”. The pKd (RADIL, Q96JH8) was 3.62, the pKd (SCRIB_2, Q14160) was 4.15 and the pKd (SCRIB_3, Q14160) was 3.75. The pKd (SHANK1, Q9Y566) was 4.01, the pKd (SIPA1L2, Q9P2F8) was “below the threshold” and the pKd (TJP1_2, Q07157) was 3.62. The pKd (TJP2_1, Q9UDY2) was 4.6.

For VISSDDLTEL [CAPN6, Q9Y6Q1], the pKd (APBA1_1, Q02410) was “below the threshold”, the pKd (ARHGEF12, Q9NZN5-2) was 4.91 and the pKd (DLG2_2, Q15700) was “below the threshold”. The pKd (DLG3_2, Q92796) was 3.99, the pKd (DLG3_3, Q92796) was “below the threshold” and the pKd (DLG4_3, P78352) was “below the threshold”. The pKd (DLG5_1, Q8TDM6) was “below the threshold”, the pKd (FRMPD4, Q14CM0) was 4.73 and the pKd (GORASP2, Q9H8Y8) was “below the threshold”. For the same binder, the pKd (GRASP, Q7Z6J2) was 4.21, the pKd (GRIP1_5, Q9Y3R0) was “below the threshold” and the pKd (IL16_1, Q14005) was “below the threshold”. The pKd (LDB3, O75112) was 3.53, the pKd (LIN7A, O14910) was “below the threshold” and the pKd (MAGI1_2, Q96QZ7) was “below the threshold”. For the same binder, the pKd (MAGI2_2, Q86UL8) was “below the threshold”, the pKd (MAGI2_3, Q86UL8) was 3.68 and the pKd (MAGI3_2, Q5TCQ9) was “below the threshold”. The pKd (MPDZ_5, O75970) was “below the threshold”, the pKd (MPP6, Q9NZW5) was “below the threshold” and the pKd (PDLIM1, O00151) was “below the threshold”. The pKd (RADIL, Q96JH8) was “below the threshold”, the pKd (SCRIB_2, Q14160) was “below the threshold” and the pKd (SCRIB_3, Q14160) was 3.86. For the same binder, the pKd (SHANK1, Q9Y566) was 4.84, the pKd (SIPA1L2, Q9P2F8) was “below the threshold” and the pKd (TJP1_2, Q07157) was “below the threshold”. For the same binder, the pKd (TJP2_1, Q9UDY2) was “below the threshold”.
